Experimental data: patent US20240043859A1, “HERBICIDE-RESISTANT PROTEIN, AND GENE AND USE THEREOF” (QINGDAO KINGAGROOT CHEMICAL COMPOUND CO., LTD., priority 2020, published 2024)
Entries after “also recorded” stand apart in the source; their conditions may differ.

How the values were obtained:
[1] = Chromogenic reaction of degrading herbicides in bacteria: 2,4-D; format: cell-based, Escherichia coli; conditions: recombinant E. coli expressing the gene, 2,4-D added to the medium, red = phenols
How it was run: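 Colour from 2,4-D degradation was detected at A510 after 5 min at room temperature, with 4-aminoantipyrine and ferricyanide added to culture supernatant in pH 10 borate. Cultures were AAD12-expressing or empty-vector (pET15b) BL21(DE3), grown overnight at 28 °C with 0.5 mM 2,4-D, 0.1 mM IPTG and 2 mM α-ketoglutarate.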

[2] = format: cell-based, Escherichia coli
Arabidopsis thaliana [3] = assay: Herbicide resistance of transgenic Arabidopsis thaliana seedlings on plate medium (root growth); format: in vivo; conditions: Arabidopsis overexpressing the gene
How it was run: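 After 3 days of cold treatment at 4 °C, seeds were cultured at 22 °C under a 16 h/8 h light cycle on MS herbicide medium (0.3 μM 2,4-D in the screen). Root growth was scored against wild-type seedlings at one week. The material was T2 AAD-overexpressing lines (AtUbi10 promoter, MAS terminator, hygromycin marker), two events each, tested with 2,4-D, 2,4-DB sodium and MCPA.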

Arabidopsis thaliana [4] = assay: as above; format: in vivo; conditions: plate medium with 2,4-D (0.3 μmol)
[5] = Chromogenic reaction of degrading herbicides in bacteria: triclopyr; format: cell-based, Escherichia coli; conditions: recombinant E. coli expressing the gene
Description: To transform the plasmids to be tested, an AAD12-expressing plasmid and a blank control plasmid pET15b were respectively transformed into the protein expression E. coli BL21(DE3) strains. A monoclone was selected and inoculated in a 10 ml centrifuge tube with 3 ml LB medium, and cultivated at 37° C., 200 rpm for 6-8 hours. […] The temperature was switched to 28° C. and the cultivation continued overnight. In the next morning, 200 μL of each bacteria solution was taken and centrifuged to precipitate thallus, 180 μL of the supernatant was taken and added in a 96-well plate, and 20 μL of borate buffer of pH 10 was added. Then the mixture was added with 2 μL of 8% potassium ferricyanide and mixed well, followed by adding 2 μL of 2% 4-aminoantipyrine, and placed at room temperature for 5 min to observe the color and detect the A510 value. […]

| Molecule | Chromogenic reaction of degrading herbicides in bacteria: 2,4-D ([1]; listed as D56) | Chromogenic reaction of degrading herbicides in bacteria: MCPA [2] | Resistance of transgenic Arabidopsis thaliana: 2,4-D (Arabidopsis thaliana [3]) | 2,4-D resistance of T1 generation transgenic seedlings (seminal root growth) (Arabidopsis thaliana [4]) | Chromogenic reaction of degrading herbicides in bacteria: 2,4-D [1] | Chromogenic reaction of degrading herbicides in bacteria: 2,4-D ([1]; listed as D53) | Resistance of transgenic Arabidopsis thaliana: MCPA (Arabidopsis thaliana [3]) | Chromogenic reaction of degrading herbicides in bacteria: 2,4-D ([1]; listed as D55) | Chromogenic reaction of degrading herbicides in bacteria: 2,4-D ([1]; listed as D52) | Chromogenic reaction of degrading herbicides in bacteria: 2,4-D ([1]; listed as D30) | Chromogenic reaction of degrading herbicides in bacteria: Triclopyr [5] | Chromogenic reaction of degrading herbicides in bacteria: Triclopyr ([5]; listed as D30) | Chromogenic reaction of degrading herbicides in bacteria: 2,4-D ([1]; listed as D57) | Chromogenic reaction of degrading herbicides in bacteria: 2,4-D ([1]; listed as D51) |
| --- | --- | --- | --- | --- | --- | --- | --- | --- | --- | --- | --- | --- | --- | --- |
| QYD56: AAD-like enzyme, SEQ ID NO. 111 (protein, Synthetic polypeptide, QYD56, D56) MARTFDVQPLDATFGAVISGVKLAALDDETWRELYATWLQYALLVFPGQHLSRDQQIAFARRFGPLEFEIIALSNVKSDGTIRSEVENDDVIKVLKGNMGWHADSTYMPVQAKGAVFTAEVVPSVGGQTGWADMRAAYDALDGATRQKVEQLSAYHSLHYSQSKLGHQHKPGSAYSGYGFHDGPVPLRPLVKTHPETGRKSLLIGRHAHNIPGMDKDESARFLEDLVASACQPPRIYHHTWAAGDAVVWDNRCLLHQATPWDMTQPRVMWHSRIAGDPLSEAALG | could degrade 2,4-D; also recorded: capable of degrading 2,4-D | Yes | Yes | showing tolerance to 2,4-D | – | – | – | – | – | – | – | – | – | – |
| QYD53: AAD-like enzyme, SEQ ID NO. 105 (protein, Synthetic polypeptide, QYD53, D53) MASTLSLQPLEGITFGAVATGFRIAELDEPTWQALHDAWLDHALLIFPGQFLTRDEQIAFARRFGPLEFEMAAISNVKPDGTLRLEKDNDDMMKVLKGNMGWHADSTYMPVQAKGAVFSAEVVPTIGGETGWADMRAAYEALDAATREKIDGLSAFHSLHYSQSKLGHQTQKSDGQYNGYGLHDGPVPLRPLVKTHPETGRKSLLIGRHAHNIPGMDKAESERFLDGLIAFACQPPRVYHHHWAPGDVVVWDNRCLLHQATPWDMTQPRVMWHSRIAGDPASEAGLAA | – | Yes | Yes | showing tolerance to 2,4-D | Yes | could degrade 2,4-D; also recorded: capable of degrading 2,4-D | Yes | – | – | – | – | – | – | – |
| QYD55: AAD-like enzyme, SEQ ID NO. 109 (protein, Synthetic polypeptide, QYD55, D55) MARPFDIEPLDATFGAVVRGVKVAALDDVTWRALHDAWLQYALLIFPGQHLSREAQIAFAKRFGPLEFEMAPISNVRADGSVRAEAENDDVIKVLKGNMGWHCDSTYMPVQAKGAVFSAEVVPGAGGQTGWADMRAAYDALDGDLRARIENLSAYHSLYYSQAKLDHRPSKSSAYSGYGFHDGPVPLRPLVKVHPETGRKSLLIGRHAHNIPGMDADESTRLLQSLVDFACRPPRIYHHHWTAGDTVVWDNRCLLHQATPWDMTQPRVMWHSRIAGDPASEAALA | – | Yes | Yes | showing tolerance to 2,4-D | Yes | – | – | could degrade 2,4-D; also recorded: capable of degrading 2,4-D | – | – | – | – | – | – |
| QYD52: AAD-like enzyme, SEQ ID NO. 103 (protein, Synthetic polypeptide, QYD52, D52) MTRTLDIEPIDATFGAVVRGIKVAEVDDETFRALYDAWLQYALLIFPDQHLQRDQQIAFAKRFGPLEFEMTAISNVRSDGTLRLEKDNDDVMKILKGNMGWHHDSTYMPVQAKGAVFSAEEVPTIGGRTGFADMRAAYDALDPAMKARIEGLNAYHSLHYSQGKVGHQTRKADGEYSGYGLHDGPVPLRPLVKTHPETGRKSLLAGRHAHNIPGLSQEASDSLLRELIDFACQPPRIYHHDWTPGDAVVWDNRCLMHQATPWDMTQRRIMWHSRIAGDPASESSLAA | – | Yes | Yes | showing tolerance to 2,4-D | Yes | – | – | – | could degrade 2,4-D; also recorded: capable of degrading 2,4-D | – | – | – | – | – |
| QYD30: AAD-like enzyme, SEQ ID NO. 59 (protein, Synthetic polypeptide, QYD30, D30) MALSLTPLTPGFVAEASGLDLTRPLDAAAVRTIEQAMDDYAVLVFRNQPLDQDQQIRFAQGFGPLDLGLRKVKGGAHRFDHAELADISNVTVDGSVAGRDHAKIVGNIANQLWHSDSSFQRPRAKYSMLSAVVVPQDGGQTEFADLRAAYDHLPDGMKAAIGDLQAVHYALHSRFLLGDTEYTQAQRDALPAVRWPLVQTDPRSGRKILFVGIHACEVVGMTVAEGRMLLLDLLEHATQREFVYRHHWRVGDLVMWDNTATLHRGRRFDLAQRRELRRATTEEVRLSAEARAAA | – | Yes | Yes | – | Yes | – | – | – | – | could degrade 2,4-D; also recorded: capable of degrading 2,4-D | Yes | slight degradation | – | – |
| QYD57: AAD-like enzyme, SEQ ID NO. 113 (protein, Synthetic polypeptide, QYD57, D57) MPQHFDVAPVDATFGAVVTNLKLANLDEPAFRELYATWLEHALLIFPGQFLTREQQIAFARRFGALEFEMAAISNVKSDGTLRREADNDDVVKILKGNMGWHADSTYMPLQAKGAVFSAKVVPSARGETGWADMRAAYDALDAAVRDRVERLSAYHSLHYSQAKAGFQHKDKKSEYSGYGLHDGPVPLRPLVKTHPETGRKSLLIGRHAHNIPGMEPEESERLLDGLVEFACQAPRTYHHSWKPGEAVIWDNRCLLHRAMPWDMTEPRIMWHSRIAGDPASEAAIN | – | Yes | Yes | showing tolerance to 2,4-D | Yes | – | Yes | – | – | – | – | – | could degrade 2,4-D; also recorded: capable of degrading 2,4-D | – |
| QYD51: AAD-like enzyme, SEQ ID NO. 101 (protein, Synthetic polypeptide, QYD51, D51) MARTLDIEPIDATFGAVVRGIKVAEVDDETFRALYDAWLEYALLIFPDQHLKRDQQIAFAKRFGPLEFEMTAISNVRSDGTLRLEKDNDDVMKVLKGNMGWHHDSTYMPVQAKGAVFSAEEVPTIGGRTGFADMRAAYDALDPAMKARIEGLNAYHSLHYSQGRVGHQTKKSDGEYSGYGLHDGPVPLRPLVKTHPETGRKSLLAGRHAHNIPGLAQEESDRLLRELIDFACQPPRIYHHDWTPGEAVVWDNRCLMHQATPWDMTQRRIMWHSRIAGDPASESARPQP | – | Yes | Yes | showing tolerance to 2,4-D | Yes | – | Yes | – | – | – | – | – | – | could degrade 2,4-D; also recorded: capable of degrading 2,4-D |
